Test results from US12098378B2, “Anti-fungal polypeptides” (priority 2020, dated 2024).

How the values were obtained:
Fraction 3 = experiment: ELISA with biotinylated liposomes on streptavidin-coated plates; assay type: binding, Botrytis cinerea
From the text: Dissociation constants (Kd) can be estimated based on the results of an ELISA. In equilibrium analysis as in ELISA, the Kd can be calculated from the equilibrium binding response. Where the ELISA plate wells are coated with a target antigen, and where the target antigen may be a lipid-containing fraction of the membrane of Botrytis cinerea, such a method may further use a range of concentrations of a polypeptide binding the target antigen. Where the ELISA generally provides a quantitative adsorption measure for each polypeptide concentration representing binding of the polypeptide to the target antigen, the range of concentration of a polypeptide may for example be 0.5, 1, 2.5, 5, and 10 μM. The most suitable range of concentrations used can vary depending on the affinity of the polypeptide to the target antigen. The corresponding absorption values as determined by ELISA may result in a sigmoid curve when absorption values are plotted against the logarithmic conversion of the polypeptide concentrations. This sigmoid curve may serve to define an IC50 value. Where this IC50 is the concentration of polypeptide where the corresponding absorption value is 50% of the saturated value as estimated by the maximum of the sigmoidal function, the Kd can be estimated by 1/Ka were the association constant (Ka) can be estimated as 1/IC50. Thus Kd corresponds to the analyte concentration that reaches equilibrium at 50% binding saturation. Commonly computation methods can be used for these calculations. For example, this can be done using GraphPad. In some embodiments, the Kd may be determined by surface plasmon resonance (SPR).
The above-mentioned method for the formation of liposomes (Example 12) was modified with the addition of a biotinylated lipid (12:0 Biotinyl M G (1-(12-N-biotin)aminododecanoyl-rac-glycerol), Sigma Aldrich), to allow for use of these liposomes for ELISA using streptavidin-coated plates (Pierce™ Streptavidin Coated High Capacity Plates, Clear, 96-Well, blocked with SuperBlock™ Buffer, Thermo Fisher Scientific).
To estimate the dissociation constant Kd value of 10G11 binding to Fraction 3, the ELISA set-up with biotinylated liposomes from Fraction 3 as described in Example 13 was used. 10G11 polypeptide was added in the following concentrations: 0.5, 1, 2.5, 5, and 10 μM, prepared by a serial dilution in phosphate buffer. […] This plot was used to estimate the Kd dissociation constant using GraphPad. Where non-linear regression fitting was used.

Botrytis cinerea spores = experiment: Microscopic time-lapse imaging of spores (mode of action); assay type: cell-based; details: IncuCyte time-lapse imaging (FIG. 14)
From the text: The action of 10G11 disrupting liposomes (Example 12), further underscores lysing of spores can be attributed to the action of 10G11.

Oidium neolycopersici = experiment: Control of powdery mildew on tomato; assay type: in vivo; details: 250, 500, 750 g ai/ha, 5 applications, until one week after the last application
Procedure: Four replicates of 15 tomato plants (9.9 m^2 per plot) were treated with […] of spray solution, corresponding with a spray volume of […], according to local practice. The spray mix contained a concentration of active ingredient as described in Table 5. Five applications were performed spaced 7 days apart. No artificial infection was performed and first spray was placed when first symptoms were observed. The efficacy of 10G11 was compared to that of a non-treated control and the chemical reference Topas (Penconazole). In addition, a chemical rotation of Systhane Forte (Myclobutanil), Ortiva (Azoxystrobin), Signum (Boscalid. Pyraclostrobin) and Topas was evaluated. A seventh treatment replaced part of the chemicals in this chemical rotation by 10G11 as described in Table 5.
The percentage of leaf area affected by the disease (disease severity) was recorded in 10 randomly selected leaves per plot. Percentage incidence (PESINC; % of affected leaves), was calculated based on these values. Assessments were performed on a weekly basis and continued until 1 week after the last application.

Botrytis cinerea = experiment: Control of Botrytis cinerea on strawberry, at harvest and postharvest; assay type: in vivo
Procedure: Four replicates of 20 strawberry plants ([…] per plot) were treated with 0.576 or 0.72 l of spray solution, corresponding with a spray volume of […], according to local practice. The spray mix contained a concentration of active ingredient as described in Table 7. Six applications were performed spaced 7 days apart. No artificial infection was performed and first spray was placed at the onset of flowering. The efficacy of 10G11 was compared to that of a non-treated control and the chemical reference Teldor (Fenhexamid). In addition, a chemical rotation of Switch (Cyprodinil+Fludioxonil), Teldor (Fenhexamid) and Scala (Pyrimethanil) was evaluated. A seventh treatment replaced part of the chemicals in this chemical rotation by 10G11 as described in Table 7.
Efficacy assessments were performed on fruits at harvest and the number and weight of healthy and diseased fruits was evaluated. Per plot, 50 healthy fruits were then placed into cold storage (2° C.) for two days, after which the postharvest assessment continued for 5 more days at ambient temperature ([…]). Botrytis incidence and severity on stored fruits was assessed at 0, 2 and 5 days at ambient storage.

Podosphaera xanthii = experiment: Control of powdery mildew on cucumber in greenhouse; assay type: in vivo
Procedure: Four replicates of 10 plants per plot of cucumber plants (4 m^2 per plot) were treated with a spray volume between 1000 and 18751/ha depending on the crop height. The spray mix contained a concentration of active ingredient as described in Table 8. Eight applications were performed spaced 7 days apart. No artificial infection was performed and first spray was placed at the onset of flowering. The efficacy of 10G11 was compared to that of a non-treated control, a chemical reference Topaz (Penconazole), a biological reference Sonata (Bacillus pumilis strain QST 2808) in combination with the adjuvant Elasto G5 and a chemical rotation of Takumi (Cyflufenamid), Flint (Trifloxystrobin) and Topaz.
Efficacy assessments were performed on 40 leaves per plot, assessing the percentage of leaf area affected (PESSEV). Assessments were performed on a weekly basis and continued until two weeks after the last application.

B1: 10G11: VHH polypeptide, SEQ ID NO: 2, begins with a D residue (protein)
VHH: DVQLVESGGGLVQAGGSLRLSCAASRSIFSINAMDWYRQAPGKQREWVAGITRGGTTKYADSVKGRFTISRDNAKKKVYLQMNSLKPEDTAVYYCNVLRGEQPWTRDYWGQGTQVTVSS
Q: B1 was tested. Which IC50 (Fraction 3; 0.5, 1, 2.5, 5 and 10 μM polypeptide, non-linear regression fitting in GraphPad (FIG. 29), read-out: IC50 of ELISA absorption plot) did it give?
A: Its IC50 is 760 to 1550 nM.

Q: What about the Kd (Fraction 3; converted from the ELISA IC50 range (FIG. 29), read-out: dissociation constant Kd, estimate) of the same molecule?
A: Its Kd is 760 to 1550 nM.

Q: And the “spore lysis (loss of structural integrity)” value (Botrytis cinerea spores)?
A: The value was “substantial portion of spores are also lysed”.

Q: And the spore outgrowth (Botrytis cinerea spores)?
A: Its spore outgrowth is “inhibited in commencing spore outgrowth”.

Q: What about the “severity of powdery mildew on tomato (percentage of leaf area affected)” value (Oidium neolycopersici; mild disease pressure (FIG. 22)) of the same molecule?
A: Its value is “clear and dose-related performance”.

Q: What about the “incidence (PESINC) of powdery mildew on tomato” value (Oidium neolycopersici; mild disease pressure (FIG. 23)) of the same molecule?
A: Its value is “clear and dose-related performance”.

Q: What about the “Botrytis infected strawberry fruits at harvest” value (Botrytis cinerea; 250, 500, 750 g ai/ha, 6 applications in the field during flowering (FIG. 26)) of the same molecule?
A: Its value is “reduced incidence of Botrytis at harvest”.

Q: And the “Botrytis severity on strawberry fruits in postharvest” value (Botrytis cinerea; stored fruits, 2 days at 2° C. then 0, 2 and 5 days at ambient storage (FIG. 27))?
A: Its value is “dose-related reduction of Botrytis severity on stored fruits”.

Q: What about the “severity (PESSEV) of powdery mildew on cucumber” value (Podosphaera xanthii; 125, 250, 500 g ai/ha LWA, until 1 week after the seventh application (FIG. 28)) of the same molecule?
A: Its value is “clear and dose-related performance”.

Q: What about the “severity (PESSEV) of powdery mildew on cucumber” value (Podosphaera xanthii; from the eighth application, very severe disease pressure (FIG. 28)) of the same molecule?
A: The value was “Performance decreased”.
